From the supplement of paper PMC10567573

B1: DYRK1B (parent)
chain: RFQDLVLRMLEYEPAARISPLGAL

Variants of: B1
Assay: protein stability index of a GFP-peptide fusion (GPS, HEK-293T) (PSI 1-6); higher = more stable
Conditions: c terminus: a fixed tail appended
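Note: lentivirally expressed fusions sorted by FACS into six bins by GFP to DsRed ratio, PSI derived from sequencing read proportions per bin multiplied by bin number.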

Question: For RFQDLVLRMLEEEPAARISPLGAL [Y12E], which protein stability index is on record?
Answer: 1.05

Question: With RFQDLVLRMLEWEPAARISPLGAL [Y12W] as the variant, how does the protein stability index read?
Answer: 2.82

Question: With RFQDLVLRMLEDEPAARISPLGAL [Y12D] as the variant, how does the protein stability index read?
Answer: 1.99

Question: With RFQDLVLRMLEGEPAARISPLGAL [Y12G] as the variant, how does the protein stability index read?
Answer: 1.6

Question: Which protein stability index does the source give for RFQDLVLRMPEYEPAARISPLGAL [L10P] here?
Answer: 2.37

Question: For RFQDLVLRMNEYEPAARISPLGAL [L10N], which protein stability index is on record?
Answer: 1.64

Question: For RFQDLVLRMQEYEPAARISPLGAL [L10Q], which protein stability index is on record?
Answer: 1.6

Question: With RFQDLVLRMGEYEPAARISPLGAL [L10G] as the variant, how does the protein stability index read?
Answer: 1.66

Question: With RFQDLVLRMTEYEPAARISPLGAL [L10T] as the variant, how does the protein stability index read?
Answer: 2.19

Question: With RFQDLVLRMHEYEPAARISPLGAL [L10H] as the variant, how does the protein stability index read?
Answer: 1.17

Question: Which protein stability index does the source give for RFQDLVLRMEEYEPAARISPLGAL [L10E] here?
Answer: 1.27

Question: For RFQDLVLRMDEYEPAARISPLGAL [L10D], which protein stability index is on record?
Answer: 1.92

Question: For RFQDLVLRMMEYEPAARISPLGAL [L10M], which protein stability index is on record?
Answer: 2.05

Question: With RFQDLVLRMAEYEPAARISPLGAL [L10A] as the variant, how does the protein stability index read?
Answer: 3.32

Question: With RFQDLVLRMIEYEPAARISPLGAL [L10I] as the variant, how does the protein stability index read?
Answer: 1.96

Question: For RFQDLVLRMLLYEPAARISPLGAL [E11L], which protein stability index is on record?
Answer: 2.25

Question: Which protein stability index does the source give for RFQDLVLRMLYYEPAARISPLGAL [E11Y] here?
Answer: 3.21

Question: For RFQDLVLRMLMYEPAARISPLGAL [E11M], which protein stability index is on record?
Answer: 3.73

Question: With RFQDLVLRMLNYEPAARISPLGAL [E11N] as the variant, how does the protein stability index read?
Answer: 2.21

Question: With RFQDLVLRMLTYEPAARISPLGAL [E11T] as the variant, how does the protein stability index read?
Answer: 3.67

Question: With RFQDLVLRMLQYEPAARISPLGAL [E11Q] as the variant, how does the protein stability index read?
Answer: 2.81

Question: For RFQDLVLRMLAYEPAARISPLGAL [E11A], which protein stability index is on record?
Answer: 1.56

Question: Which protein stability index does the source give for RFQDLVLRMLPYEPAARISPLGAL [E11P] here?
Answer: 3.04

Question: For RFQDLVLRMLVYEPAARISPLGAL [E11V], which protein stability index is on record?
Answer: 3.51

Question: With RFQDLVLRMLHYEPAARISPLGAL [E11H] as the variant, how does the protein stability index read?
Answer: 2.96

Question: Which protein stability index does the source give for RFQDLVLRMLRYEPAARISPLGAL [E11R] here?
Answer: 2.66

Question: For RFQDLVLRMLEYEPAARISWLGAL [P20W], which protein stability index is on record?
Answer: 3.32

Question: For RFQDLVLRMLEYEPAARISCLGAL [P20C], which protein stability index is on record?
Answer: 3.75

Question: Which protein stability index does the source give for RFQDLVLRMLEYEPAARISYLGAL [P20Y] here?
Answer: 4.39

Question: For RFQDLVLRMLEYEPAARISELGAL [P20E], which protein stability index is on record?
Answer: 2.84

Question: Which protein stability index does the source give for RFQDLVLRMLEYEPAARISNLGAL [P20N] here?
Answer: 3.12

Question: With RFQDLVLRMLEYEPAARISQLGAL [P20Q] as the variant, how does the protein stability index read?
Answer: 2.29

Question: For RFQDLVLRMLEYEPAARISSLGAL [P20S], which protein stability index is on record?
Answer: 2.53

Question: For RFQDLVLRMLEYEPAARISGLGAL [P20G], which protein stability index is on record?
Answer: 2.01

Question: With RFQDLVLRMLEYEPAARISFLGAL [P20F] as the variant, how does the protein stability index read?
Answer: 2.2

Question: With RFQDLVLRMLEYEPAARISTLGAL [P20T] as the variant, how does the protein stability index read?
Answer: 2.1

Question: With RFQDLVLRMLEYEPAARISVLGAL [P20V] as the variant, how does the protein stability index read?
Answer: 3.27

Question: Which protein stability index does the source give for RFQDLVLRMLEYEPAARISILGAL [P20I] here?
Answer: 2.64

Question: For RFQDLVLRMLEYEPAARISPCGAL [L21C], which protein stability index is on record?
Answer: 1.98

Question: For RFQDLVLRMLEYEPAARISPDGAL [L21D], which protein stability index is on record?
Answer: 1.78

Question: For RFQDLVLRMLEYEPAARISPAGAL [L21A], which protein stability index is on record?
Answer: 1.75

Question: Which protein stability index does the source give for RFQDLVLRMLEYEPAAIISPLGAL [R17I] here?
Answer: 4.01

Question: With RFQDLVLRMLEYEPAAMISPLGAL [R17M] as the variant, how does the protein stability index read?
Answer: 4.29

Question: Which protein stability index does the source give for RFQDLVLRMLEYEPAANISPLGAL [R17N] here?
Answer: 1.46

Question: With RFQDLVLRMLEYEPAATISPLGAL [R17T] as the variant, how does the protein stability index read?
Answer: 1

Question: With RFQDLVLRMLEYEPAAGISPLGAL [R17G] as the variant, how does the protein stability index read?
Answer: 2.29

Question: With RFQDLVLRMLEYEPAAFISPLGAL [R17F] as the variant, how does the protein stability index read?
Answer: 1.77

Question: For RFQDLVLRMLEYEPAAYISPLGAL [R17Y], which protein stability index is on record?
Answer: 3.04

Question: With RFQDLVLRMLEYEPAASISPLGAL [R17S] as the variant, how does the protein stability index read?
Answer: 2.69

Question: For RFQDLVLRMLEYEPAACISPLGAL [R17C], which protein stability index is on record?
Answer: 2.25

Question: Which protein stability index does the source give for RFQDLVLRMLEYEPAAPISPLGAL [R17P] here?
Answer: 2.75

Question: For RFQDLVLRMLEYEPAADISPLGAL [R17D], which protein stability index is on record?
Answer: 1.91

Question: Which protein stability index does the source give for RFQDLVLRMLEYEPAARIRPLGAL [S19R] here?
Answer: 2.38

Question: For RFQDLVLRMLEYEPAARIVPLGAL [S19V], which protein stability index is on record?
Answer: 2.91

Question: Which protein stability index does the source give for RFQDLVLRMLEYEPAARIKPLGAL [S19K] here?
Answer: 3.06

Question: Which protein stability index does the source give for RFQDLVLRMLEYEPAARILPLGAL [S19L] here?
Answer: 4.05

Question: With RFQDLVLRMLEYEPAARIYPLGAL [S19Y] as the variant, how does the protein stability index read?
Answer: 3.82

Question: For RFQDLVLRMLEYEPAARIPPLGAL [S19P], which protein stability index is on record?
Answer: 2.61

Question: For RFQDLVLRMLEYEPAARIEPLGAL [S19E], which protein stability index is on record?
Answer: 3.96

Question: For RFQDLVLRMLEYEPAARIQPLGAL [S19Q], which protein stability index is on record?
Answer: 1.55

Question: Which protein stability index does the source give for RFQDLVLRMLEYEPAARIAPLGAL [S19A] here?
Answer: 1.17

Question: For RFQDLVLRMLEYEPAARIGPLGAL [S19G], which protein stability index is on record?
Answer: 1.07

Question: For RFQDLVLRMLEYEPAARIDPLGAL [S19D], which protein stability index is on record?
Answer: 1.76

Question: For RFQDRVLRMLEYEPAARISPLGAL [L5R], which protein stability index is on record?
Answer: 1.2

Question: For RFQDVVLRMLEYEPAARISPLGAL [L5V], which protein stability index is on record?
Answer: 2.42

Question: For RFQDYVLRMLEYEPAARISPLGAL [L5Y], which protein stability index is on record?
Answer: 2.06

Question: For RFQDNVLRMLEYEPAARISPLGAL [L5N], which protein stability index is on record?
Answer: 2.28

Question: Which protein stability index does the source give for RFQDCVLRMLEYEPAARISPLGAL [L5C] here?
Answer: 3.97

Question: With RFQDTVLRMLEYEPAARISPLGAL [L5T] as the variant, how does the protein stability index read?
Answer: 1.49

Question: With RFQDAVLRMLEYEPAARISPLGAL [L5A] as the variant, how does the protein stability index read?
Answer: 2.01

Question: For RFQDKVLRMLEYEPAARISPLGAL [L5K], which protein stability index is on record?
Answer: 1.91

Question: Which protein stability index does the source give for RFQDQVLRMLEYEPAARISPLGAL [L5Q] here?
Answer: 1.1

Question: For RFQDEVLRMLEYEPAARISPLGAL [L5E], which protein stability index is on record?
Answer: 1.02

Question: Which protein stability index does the source give for RFQDGVLRMLEYEPAARISPLGAL [L5G] here?
Answer: 1.4

Question: With RFQDWVLRMLEYEPAARISPLGAL [L5W] as the variant, how does the protein stability index read?
Answer: 2

Question: With RFQDFVLRMLEYEPAARISPLGAL [L5F] as the variant, how does the protein stability index read?
Answer: 2.62

Question: With RFQDMVLRMLEYEPAARISPLGAL [L5M] as the variant, how does the protein stability index read?
Answer: 3.17

Question: For RFQDHVLRMLEYEPAARISPLGAL [L5H], which protein stability index is on record?
Answer: 1.36

Question: Which protein stability index does the source give for RFQDPVLRMLEYEPAARISPLGAL [L5P] here?
Answer: 2.16

Question: Which protein stability index does the source give for RFQDDVLRMLEYEPAARISPLGAL [L5D] here?
Answer: 2.71

Question: With RFQDLVLRMLEYDPAARISPLGAL [E13D] as the variant, how does the protein stability index read?
Answer: 3.04

Question: Which protein stability index does the source give for RFQDLVLRMLEYQPAARISPLGAL [E13Q] here?
Answer: 3.79

Question: For RFQDLVLRMLEYLPAARISPLGAL [E13L], which protein stability index is on record?
Answer: 2.27

Question: With RFQDLVLRMLEYPPAARISPLGAL [E13P] as the variant, how does the protein stability index read?
Answer: 3.05

Question: Which protein stability index does the source give for RFQDLVLRMLEYFPAARISPLGAL [E13F] here?
Answer: 2.32

Question: For RFQDLVLRMLEYSPAARISPLGAL [E13S], which protein stability index is on record?
Answer: 2.48

Question: Which protein stability index does the source give for RFQDLVLRMLEYWPAARISPLGAL [E13W] here?
Answer: 3.37

Question: Which protein stability index does the source give for RFQDLVLRMLEYHPAARISPLGAL [E13H] here?
Answer: 1.76

Question: Which protein stability index does the source give for RFQDLVLRMLEYGPAARISPLGAL [E13G] here?
Answer: 1.82

Question: With RFQDLVLRMLEYTPAARISPLGAL [E13T] as the variant, how does the protein stability index read?
Answer: 4.09

Question: For RFQDLVLRMLEYNPAARISPLGAL [E13N], which protein stability index is on record?
Answer: 2.11

Question: With RFQDLVLRMLEYYPAARISPLGAL [E13Y] as the variant, how does the protein stability index read?
Answer: 3.29

Question: For RFQDLVLRMLEYAPAARISPLGAL [E13A], which protein stability index is on record?
Answer: 2.87

Question: For RFQDLVLRMLEYRPAARISPLGAL [E13R], which protein stability index is on record?
Answer: 1.34
